# According to US20240133885A1 (UNIVERSITY OF SOUTHERN CALIFORNIA, published 2024):
# Like-named read-outs stand apart in the source and are kept apart here.
# B1: SLAMF7-CS1-ECD-GGSG-NLuc-4xFlag-2xStreptag-8xHis-T2A-Pac (receptor)
# chain: not shown
# notes: Entry = whole insert incl; T2A-Pac; also called 062816-A01
# B2: FLAG-CD19-ECD-GGSG-NLuc-AcV5 (receptor)
# chain: not shown
# notes: Entry = whole insert incl; CD19 signal peptide, FLAG tag, linker, NLuc, AcV5; also called CD19-GGSG-NLuc-AcV5
# B3: CDH1-ECD-GGSG-NLuc-4xFlag-2xStreptag-8xHis-T2A-Pac (receptor)
# chain: not shown
# notes: Entry = whole insert incl; T2A-Pac; also called 062816-G02
# B4: CD8SP-hCD19-Bu12-(vL-vH)-GGSG-NLuc-AcV5 (scFv)
# scFv: not shown
# notes: Entry = whole insert incl. signal peptide; also called 021417-T05
# B5: CD8SP-CD19-4G7-(vL-vH)-GGSG-NLuc-4xFLAG-x2STREP-8xHis-T2A-PAC (scFv)
# scFv: not shown
# notes: Entry = whole insert incl. signal peptide and T2A-PAC; also called 062916-C08
# B6: CD8SP-CD19-4G7-Mlu-GSG-NLuc-AcV5 (scFv)
# scFv: not shown
# notes: Entry = whole insert incl. signal peptide; also called 021417-Z04
# Assays:
# [1] = target: T1, Luc90-(vL-vH)-MYC-CD28z-T2A-Pac; test: NLuc assay, supernatant on 293FT cells transfected with the CAR
# T1 construct: Entry = whole construct incl; T2A-Pac; also called SLAMF7/CS1-specific CAR; 031915-F03
# [2] = target: T2, FMC63-(vL-vH)-Myc-BBz-T2A-Pac; test: NLuc assay, supernatant on CAR T cells
# T2 construct: Entry = whole construct incl; T2A-Pac; also called FMC63-CAR; CD19 (FMC63)-CAR
# [3] = target: T1, Luc90-(vL-vH)-MYC-CD28z-T2A-Pac; test: NLuc assay, supernatant on transfected 293FT cells
# [4] = target: T3, CD324-SC10-6-(vL-vH)-MYC-BBz-T2A-PAC; test: NLuc assay, supernatant on transfected 293FT cells
# T3 construct: Entry = whole construct incl; T2A-PAC; also called CDH1/CD324-specific CAR; 052516-B07
# [5] = target: T4, CD324-hSC10-17-(vL-vH)-MYC-BBz-T2A-PAC; test: NLuc assay, supernatant on transfected 293FT cells
# T4 construct: Entry = whole construct incl; T2A-PAC; also called CDH1/CD324-specific CAR; 052516-A07
# [6] = target: T5, CD200R-huDx182-(vL-vH)-Myc-BBz-T2A-PAC; test: NLuc assay, supernatant on transfected 293FT cells
# T5 construct: Entry = whole construct incl; T2A-PAC; also called CD200R-specific CAR
# [7] = target: T6, J6MO-(vL-vH)-MYC-28z-T2A-Pac; test: NLuc assay, supernatant on NK92MI cells expressing the CAR
# T6 construct: CAR on NK92MI cells; Entry = whole construct incl; T2A-Pac; also called BCMA-specific CAR; 031915-G02
# [8] = target: T2, FMC63-(vL-vH)-Myc-BBz-T2A-Pac; test: NLuc assay, supernatant on 293FT cells transfected with the CAR
# [9] = target: T3, CD324-SC10-6-(vL-vH)-MYC-BBz-T2A-PAC; test: as above
# [10] = target: T4, CD324-hSC10-17-(vL-vH)-MYC-BBz-T2A-PAC; test: as above
# [11] = target: T2, FMC63-(vL-vH)-Myc-BBz-T2A-Pac; test: as above; remark: listed apart in the source
# [12] = target: T7, CD19 (human, UniProt P15391 20-556); test: Luc assay, supernatant on HL60 cells (stated CD19-, CD20-, CD33+)
# T7 construct: whole, on cells; Endogenous antigen of the cell lines tested (RAJI stated CD19 positive); also called human CD19
# [13] = target: T7, CD19; test: Luc assay, supernatant on Raji cells (stated CD19+, CD20+, CD33-)
# [14] = target: T7, CD19; test: Luc assay, supernatant on BC1 cells
# [15] = target: T7, CD19; test: Luc assay, supernatant on RAJI cells
# [16] = target: T7, CD19; test: Luc assay, supernatant on BC-3 cells
# [17] = target: T7, CD19; test: Luc assay, supernatant on MM1S cells
# [18] = target: T7, CD19; test: Luc assay, supernatant on U266 cells
# [19] = target: T7, CD19; test: Luc assay, supernatant on BV173 cells
# [20] = target: T7, CD19; test: Luc assay, supernatant on JSC-1 cells
# [21] = target: T7, CD19; test: Luc assay, supernatant on BCBL-1 cells
binder,measurement,setting,value
B1,Mean Luc activity,[1],100000
B2,fold NLuc value over uninfected or control CAR cells,[2],> 85 fold
same,binding result,[3],no binding
same,binding result,[4],no binding
same,binding result,[5],no binding
same,binding result,[6],no binding
same,binding result,[7],no binding
same,Mean Luc activity,[1],3830
same,Mean Luc activity,[8],237000
same,Mean Luc activity,[9],16400
same,Mean Luc activity,[10],5190
same,Mean Luc activity,[11],237000
B3,Mean Luc activity,[9],2.9e+06
same,Mean Luc activity,[10],2.02e+06
B4,Mean Luc activity,[12],1610
same,Mean Luc activity,[13],358000
B5,Mean Luc activity,[14],52300
same,Mean Luc activity,[15],397000
same,Luc activity,[16],6180
same,Luc activity,[17],10400
same,Luc activity,[18],6540
same,Luc activity,[19],121000
same,Luc activity,[20],13300
same,Luc activity,[21],14000
B6,Mean Luc activity,[12],4320
same,Mean Luc activity,[13],380000
